This is an account of results in article doi:10.1101/2023.07.17.549218.

The stoichiometry N is a count of units in the complex or per binding partner. By Kd is commonly meant the free concentration of one partner at which half of the binding sites on the other are occupied at equilibrium, for simple one-to-one binding. High values mean weaker binding, low ones tighter binding.

Data set [1] concerns the target HK97 small terminase (bacteriophage HK97). In words: cryo-EM structure; small terminase with 31 bp dsDNA (cos 7-37), 1:2 protein to DNA, 25 mM Tris-HCl pH 7.5, 200 mM NaCl, 10 mM MgCl2; complex purified on S200 10/30; nonamer.
Data set [2] deals with HK97 small terminase Arg5Ala mutant (bacteriophage HK97). Put plainly: SEC; size exclusion chromatography of the purified mutant proteins (Supplementary Fig. 12); nonamer. Background: SEC sorts molecules by how far they enter the pores of the column.
The target of data set [3] is HK97 small terminase Arg7Ala mutant (bacteriophage HK97). The description is as above.
For data set [4], the target named is HK97 small terminase Arg107Ala mutant (bacteriophage HK97). Described as above.
Data set [5] has as its target HK97 small terminase Arg114Ala mutant (bacteriophage HK97). The data set is described as above.
The target in data set [6] is HK97 small terminase Lys4Ala mutant (bacteriophage HK97). The description is as above.
Data set [7] addresses HK97 small terminase Lys4Ala/Arg5Ala/Arg7Ala triple mutant (bacteriophage HK97). The description is as above.
Data set [8] addresses HK97 small terminase Lys100Ala mutant (bacteriophage HK97). The description is as above.
Data set [9] has as its target T1, HK97 small terminase WT (bacteriophage HK97) (UniProt Q9MBW4).
T1 sequence: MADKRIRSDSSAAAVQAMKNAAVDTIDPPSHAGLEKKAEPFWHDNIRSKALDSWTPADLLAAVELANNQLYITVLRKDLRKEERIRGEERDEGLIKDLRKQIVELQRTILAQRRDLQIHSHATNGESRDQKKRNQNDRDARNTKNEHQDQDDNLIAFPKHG
In words: MST. To be noted: 25 mM Tris-HCl pH 7.5, 200 mM NaCl, 10 mM MgCl2; EMSA: 3 h at RT, gel at 4 C, 1 uM protein with 2 uM unlabelled or 30 nM labelled DNA; MST: +0.005-0.01% Tween ….

Data set [10] deals with HK97 small terminase K4A/R5A/R7A (bacteriophage HK97). Put plainly: MST. To be noted: 25 mM Tris-HCl pH 7.5, 200 mM NaCl, 10 mM MgCl2; EMSA: 3 h at RT, gel at 4 C, 1 uM protein with 2 uM unlabelled or 30 nM labelled DNA; MST: +0.005-0.01% Tween ….
Data set [11] deals with HK97 small terminase R107A (bacteriophage HK97). Put plainly: MST. To be noted: 25 mM Tris-HCl pH 7.5, 200 mM NaCl, 10 mM MgCl2; EMSA: 3 h at RT, gel at 4 C, 1 uM protein with 2 uM unlabelled or 30 nM labelled DNA; MST: +0.005-0.01% Tween …. (In general: In EMSA bound probe runs differently from free probe, usually more slowly.)

For HK97 small terminase (natural protein), the stoichiometry N in data set [1] was determined as 9. “HK97 small terminase Arg5Ala mutant (natural protein)” had a stoichiometry N in data set [2] of 9. The substance “HK97 small terminase Arg7Ala mutant (natural protein)” registered a stoichiometry N in [3] of 9. As to “HK97 small terminase Arg107Ala mutant (natural protein)”, the stoichiometry N in [4] is 9. In data set [5], “HK97 small terminase Arg114Ala mutant (natural protein)” displayed a stoichiometry N of 9. As for “HK97 small terminase Lys4Ala mutant (natural protein)”, in [6], the stoichiometry N was 9. With “HK97 small terminase Lys4Ala/Arg5Ala/Arg7Ala triple mutant (natural protein)”, the stoichiometry N in data set [7] is 9. Turning to “HK97 small terminase Lys100Ala mutant (natural protein)”, in [8], the stoichiometry N was determined as 9. The substance cos71 (cos 31-100), lacks binding site showed a Kd in data set [9] of 2040 nM. Turning to cos100 (cos -20 to 80), the figures for the Kd in [10], in data set [11] and in data set [9] were 850 nM, 790 nM and 500 nM, respectively.
